Patent US20200199241A1 (Chugai, published 2020)

B1: IgG1-F888 (antibody)
heavy: QVQLQESGPGLVKPSETLSLTCAVSGHSISHDHAWSWVRQPPGEGLEWIGFISYSGITNYNPSLQGRVTISRDNSKNTLYLQMNSLRAEDTAVYYCARSLARTTAMDYWGEGTLVTVSSASTKGPSVFPLAPSSKSTSGGTAALGCLVKDYFPEPVTVSWNSGALTSGVHTFPAVLQSSGLYSLSSVVTVPSSSLGTQTYICNVNHKPSNTKVDKKVEPKSCDKTHTCPPCPAPELLGGPSVFLFPPKPKDTLYISRTPEVTCVVVDVSHEDPEVKFNWYVDGVEVHNAKTKPREEQYNSTYRVVSVLTVLHQDWLNGKEYKCKVSNKALPAPIEKTISKAKGQPREPQVYTLPPSRDELTKNQVSLTCLVKGFYPSDIAVEWESNGQPENNYKTTPPVLDSDGSFFLYSKLTVDKSRWQQGNVFSCSVMHEALHYHSTQKSLSLSP
light: not shown
notes: EU numbering; copies: 2 + 2
B2: IgG1-F889 (antibody)
heavy: QVQLQESGPGLVKPSETLSLTCAVSGHSISHDHAWSWVRQPPGEGLEWIGFISYSGITNYNPSLQGRVTISRDNSKNTLYLQMNSLRAEDTAVYYCARSLARTTAMDYWGEGTLVTVSSASTKGPSVFPLAPSSKSTSGGTAALGCLVKDYFPEPVTVSWNSGALTSGVHTFPAVLQSSGLYSLSSVVTVPSSSLGTQTYICNVNHKPSNTKVDKKVEPKSCDKTHTCPPCPAPELLGGPSVFLFPPKPKDTLYISRTPEVTCVVVDVSHEDPEVKFNWYVDGVEVHNAKTKPREEQYNSTYRVVSVLTVLHQDWLNGKEYKCKVSNKALPAPIEKTISKAKGQPREPQVYTLPPSRDELTKNQVSLTCLVKGFYPSDIAVEWESNGQPENNYKTTPPVLDSDGSFFLYSKLTVDKSRWQQGNVFSCSVMHEALHYHTTQKSLSLSP
light: not shown
notes: EU numbering; copies: 2 + 2
B3: IgG1-F891 (antibody)
heavy: QVQLQESGPGLVKPSETLSLTCAVSGHSISHDHAWSWVRQPPGEGLEWIGFISYSGITNYNPSLQGRVTISRDNSKNTLYLQMNSLRAEDTAVYYCARSLARTTAMDYWGEGTLVTVSSASTKGPSVFPLAPSSKSTSGGTAALGCLVKDYFPEPVTVSWNSGALTSGVHTFPAVLQSSGLYSLSSVVTVPSSSLGTQTYICNVNHKPSNTKVDKKVEPKSCDKTHTCPPCPAPELLGGPSVFLFPPKPKDTLYISRTPEVTCVVVDVSHEDPEVKFNWYVDGVEVHNAKTKPREEQYNSTYRVVSVLTVLHQDWLNGKEYKCKVSNKALPAPIEKTISKAKGQPREPQVYTLPPSRDELTKNQVSLTCLVKGFYPSDIAVEWESNGQPENNYKTTPPVLDSDGSFFLYSKLTVDKSRWQQGNVFSCSVMHEALHYHWTQKSLSLSP
light: not shown
notes: EU numbering; copies: 2 + 2
B4: IgG1-F892 (antibody)
heavy: QVQLQESGPGLVKPSETLSLTCAVSGHSISHDHAWSWVRQPPGEGLEWIGFISYSGITNYNPSLQGRVTISRDNSKNTLYLQMNSLRAEDTAVYYCARSLARTTAMDYWGEGTLVTVSSASTKGPSVFPLAPSSKSTSGGTAALGCLVKDYFPEPVTVSWNSGALTSGVHTFPAVLQSSGLYSLSSVVTVPSSSLGTQTYICNVNHKPSNTKVDKKVEPKSCDKTHTCPPCPAPELLGGPSVFLFPPKPKDTLYITRTPEVTCVVVDVSHEDPEVKFNWYVDGVEVHNAKTKPREEQYNSTYRVVSVLTVLHQDWLNGKEYKCKVSNKALPAPIEKTISKAKGQPREPQVYTLPPSRDELTKNQVSLTCLVKGFYPSDIAVEWESNGQPENNYKTTPPVLDSDGSFFLYSKLTVDKSRWQQGNVFSCSVMHEALHYHITQKSLSLSP
light: not shown
notes: EU numbering; copies: 2 + 2
B5: IgG1-F893 (antibody)
heavy: QVQLQESGPGLVKPSETLSLTCAVSGHSISHDHAWSWVRQPPGEGLEWIGFISYSGITNYNPSLQGRVTISRDNSKNTLYLQMNSLRAEDTAVYYCARSLARTTAMDYWGEGTLVTVSSASTKGPSVFPLAPSSKSTSGGTAALGCLVKDYFPEPVTVSWNSGALTSGVHTFPAVLQSSGLYSLSSVVTVPSSSLGTQTYICNVNHKPSNTKVDKKVEPKSCDKTHTCPPCPAPELKGGPKVFLFPPKPKDTLYISRTPEVTCVVVDVSHEDPEVKFNWYVDGVEVHNAKTKPREEQYNSTYRVVSVLTVLHQDWLNGKEYKCKVSNKALPAPIEKTISKAKGQPREPQVYTLPPSRDELTKNQVSLTCLVKGFYPSDIAVEWESNGQPENNYKTTPPVLDSDGSFFLYSKLTVDKSRWQQGNVFSCSVMHEALHYHITQKSLSLSP
light: not shown
notes: EU numbering; copies: 2 + 2
B6: IgG1-F894 (antibody)
heavy: QVQLQESGPGLVKPSETLSLTCAVSGHSISHDHAWSWVRQPPGEGLEWIGFISYSGITNYNPSLQGRVTISRDNSKNTLYLQMNSLRAEDTAVYYCARSLARTTAMDYWGEGTLVTVSSASTKGPSVFPLAPSSKSTSGGTAALGCLVKDYFPEPVTVSWNSGALTSGVHTFPAVLQSSGLYSLSSVVTVPSSSLGTQTYICNVNHKPSNTKVDKKVEPKSCDKTHTCPPCPAPELRGGPKVFLFPPKPKDTLYISRTPEVTCVVVDVSHEDPEVKFNWYVDGVEVHNAKTKPREEQYNSTYRVVSVLTVLHQDWLNGKEYKCKVSNKALPAPIEKTISKAKGQPREPQVYTLPPSRDELTKNQVSLTCLVKGFYPSDIAVEWESNGQPENNYKTTPPVLDSDGSFFLYSKLTVDKSRWQQGNVFSCSVMHEALHYHITQKSLSLSP
light: not shown
notes: EU numbering; copies: 2 + 2
B7: IgG1-F895 (antibody)
heavy: QVQLQESGPGLVKPSETLSLTCAVSGHSISHDHAWSWVRQPPGEGLEWIGFISYSGITNYNPSLQGRVTISRDNSKNTLYLQMNSLRAEDTAVYYCARSLARTTAMDYWGEGTLVTVSSASTKGPSVFPLAPSSKSTSGGTAALGCLVKDYFPEPVTVSWNSGALTSGVHTFPAVLQSSGLYSLSSVVTVPSSSLGTQTYICNVNHKPSNTKVDKKVEPKSCDKTHTCPPCPAPELKGGPKVFLFPPKPKDTLYISRTPEVTCVVVDVSHEDPEVKFNWYVDGVEVHEAKTKPREEQYNSTYRVVSVLQVLHADWLEGKEYKCKVSNKALPAPIEKTISKAKGQPREPQVYTLPPSRDELTKNQVSLTCLVKGFYPSDIAVEWESNGQPENNYKTTPPVLDSDGSFFLYSKLTVDKSRWQQGNVFSCSVMHEALHYHYTQKSLSLSP
light: not shown
notes: EU numbering; copies: 2 + 2
B8: IgG1-F896 (antibody)
heavy: QVQLQESGPGLVKPSETLSLTCAVSGHSISHDHAWSWVRQPPGEGLEWIGFISYSGITNYNPSLQGRVTISRDNSKNTLYLQMNSLRAEDTAVYYCARSLARTTAMDYWGEGTLVTVSSASTKGPSVFPLAPSSKSTSGGTAALGCLVKDYFPEPVTVSWNSGALTSGVHTFPAVLQSSGLYSLSSVVTVPSSSLGTQTYICNVNHKPSNTKVDKKVEPKSCDKTHTCPPCPAPELRGGPKVFLFPPKPKDTLYISRTPEVTCVVVDVSHEDPEVKFNWYVDGVEVHEAKTKPREEQYNSTYRVVSVLQVLHADWLEGKEYKCKVSNKALPAPIEKTISKAKGQPREPQVYTLPPSRDELTKNQVSLTCLVKGFYPSDIAVEWESNGQPENNYKTTPPVLDSDGSFFLYSKLTVDKSRWQQGNVFSCSVMHEALHYHYTQKSLSLSP
light: not shown
notes: EU numbering; copies: 2 + 2
B9: IgG1-F897 (antibody)
heavy: QVQLQESGPGLVKPSETLSLTCAVSGHSISHDHAWSWVRQPPGEGLEWIGFISYSGITNYNPSLQGRVTISRDNSKNTLYLQMNSLRAEDTAVYYCARSLARTTAMDYWGEGTLVTVSSASTKGPSVFPLAPSSKSTSGGTAALGCLVKDYFPEPVTVSWNSGALTSGVHTFPAVLQSSGLYSLSSVVTVPSSSLGTQTYICNVNHKPSNTKVDKKVEPKSCDKTHTCPPCPAPELLGGPSVFLFPPKPKDTLYISRTPEVTCVVVDVSHEDPEVKFNWYVDGVEVHNAKTKPREEQYNSTYRVVSVLTVLHQDWLDGKEYKCKVSNKALPAPIEKTISKAKGQPREPQVYTLPPSRDELTKNQVSLTCLVKGFYPSDIAVEWESAGQPEANYKTTPPVLDSDGSFFLYSKLTVDKSRWQQGNVFSCSVMHEALHYHYTQKSLSLSP
light: not shown
notes: EU numbering; copies: 2 + 2
B10: IgG1-F898 (antibody)
heavy: QVQLQESGPGLVKPSETLSLTCAVSGHSISHDHAWSWVRQPPGEGLEWIGFISYSGITNYNPSLQGRVTISRDNSKNTLYLQMNSLRAEDTAVYYCARSLARTTAMDYWGEGTLVTVSSASTKGPSVFPLAPSSKSTSGGTAALGCLVKDYFPEPVTVSWNSGALTSGVHTFPAVLQSSGLYSLSSVVTVPSSSLGTQTYICNVNHKPSNTKVDKKVEPKSCDKTHTCPPCPAPELLGGPSVFLFPPKPKDTLYISRTPEVTCVVVDVSHEDPEVKFNWYVDGVEVHNAKTKPREEQYNSTYRVVSVLTVLHQDWLEGKEYKCKVSNKALPAPIEKTISKAKGQPREPQVYTLPPSRDELTKNQVSLTCLVKGFYPSDIAVEWESAGQPEANYKTTPPVLDSDGSFFLYSKLTVDKSRWQQGNVFSCSVMHEALHYHYTQKSLSLSP
light: not shown
notes: EU numbering; also called E898; copies: 2 + 2
B11: IgG1-F899 (antibody)
heavy: QVQLQESGPGLVKPSETLSLTCAVSGHSISHDHAWSWVRQPPGEGLEWIGFISYSGITNYNPSLQGRVTISRDNSKNTLYLQMNSLRAEDTAVYYCARSLARTTAMDYWGEGTLVTVSSASTKGPSVFPLAPSSKSTSGGTAALGCLVKDYFPEPVTVSWNSGALTSGVHTFPAVLQSSGLYSLSSVVTVPSSSLGTQTYICNVNHKPSNTKVDKKVEPKSCDKTHTCPPCPAPELLGGPSVFLFPPKPKDTLYISRTPEVTCVVVDVSHEDPEVKFNWYVDGVEVHNAKTKPREEQYNSTYRVVSVLTVLHQDWLDAKEYKCKVSNKALPAPIEKTISKAKGQPREPQVYTLPPSRDELTKNQVSLTCLVKGFYPSDIAVEWESNGQPENNYKTTPPVLDSDGSFFLYSKLTVDKSRWQQGNVFSCSVMHEALHYHYTQKSLSLSP
light: not shown
notes: EU numbering; copies: 2 + 2
B12: IgG1-F900 (antibody)
heavy: QVQLQESGPGLVKPSETLSLTCAVSGHSISHDHAWSWVRQPPGEGLEWIGFISYSGITNYNPSLQGRVTISRDNSKNTLYLQMNSLRAEDTAVYYCARSLARTTAMDYWGEGTLVTVSSASTKGPSVFPLAPSSKSTSGGTAALGCLVKDYFPEPVTVSWNSGALTSGVHTFPAVLQSSGLYSLSSVVTVPSSSLGTQTYICNVNHKPSNTKVDKKVEPKSCDKTHTCPPCPAPELLGGPSVFLFPPKPKDTLYISRTPEVTCVVVDVSHEDPEVKFNWYVDGVEVHNAKTKPREEQYNSTYRVVSVLTVLHQDWLDDKEYKCKVSNKALPAPIEKTISKAKGQPREPQVYTLPPSRDELTKNQVSLTCLVKGFYPSDIAVEWESNGQPENNYKTTPPVLDSDGSFFLYSKLTVDKSRWQQGNVFSCSVMHEALHYHYTQKSLSLSP
light: not shown
notes: EU numbering; copies: 2 + 2
B13: IgG1-F901 (antibody)
heavy: QVQLQESGPGLVKPSETLSLTCAVSGHSISHDHAWSWVRQPPGEGLEWIGFISYSGITNYNPSLQGRVTISRDNSKNTLYLQMNSLRAEDTAVYYCARSLARTTAMDYWGEGTLVTVSSASTKGPSVFPLAPSSKSTSGGTAALGCLVKDYFPEPVTVSWNSGALTSGVHTFPAVLQSSGLYSLSSVVTVPSSSLGTQTYICNVNHKPSNTKVDKKVEPKSCDKTHTCPPCPAPELLGGPSVFLFPPKPKDTLYISRTPEVTCVVVDVSHEDPEVKFNWYVDGVEVHNAKTKPREEQYNSTYRVVSVLTVLHQDWLDEKEYKCKVSNKALPAPIEKTISKAKGQPREPQVYTLPPSRDELTKNQVSLTCLVKGFYPSDIAVEWESNGQPENNYKTTPPVLDSDGSFFLYSKLTVDKSRWQQGNVFSCSVMHEALHYHYTQKSLSLSP
light: not shown
notes: EU numbering; copies: 2 + 2

Each binder was assayed against T1, soluble human FcRn complexed with β2-microglobulin (human, UniProt P61769 21-119, limits assumed) (assay: Biacore SPR, pH 7.0;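 further: test antibodies captured on a Protein L chip with human FcRn flowed over as analyte, KD obtained as the ratio of dissociation to association rate constants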).
T1 construct: also called hFcRn
T1 sequence (chain, as listed by the source limits assumed, chain 1 of 2): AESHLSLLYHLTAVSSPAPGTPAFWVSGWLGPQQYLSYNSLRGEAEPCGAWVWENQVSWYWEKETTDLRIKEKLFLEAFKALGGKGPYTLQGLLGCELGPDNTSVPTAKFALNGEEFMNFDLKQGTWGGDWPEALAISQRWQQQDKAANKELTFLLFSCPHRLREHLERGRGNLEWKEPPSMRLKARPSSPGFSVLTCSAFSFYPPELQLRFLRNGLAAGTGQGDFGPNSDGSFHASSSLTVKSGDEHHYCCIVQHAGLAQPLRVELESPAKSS
T1 sequence (P61769 21-119 limits assumed, chain 2 of 2): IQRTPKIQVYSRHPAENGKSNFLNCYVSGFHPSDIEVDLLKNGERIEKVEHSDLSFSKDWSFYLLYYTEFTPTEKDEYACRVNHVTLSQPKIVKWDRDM

Binder	Kd [nM]
B1	480
B2	220
B3	170
B4	71
B5	98
B6	92
B7	21
B8	20
B9	97
B10	170
B11	110
B12	170
B13	130
